Laboratory results from patent US20100183556A1.

Biological target: B-domain-deleted human coagulation factor VIII (human) (UniProt P00451)
Experiment: cell-based or functional assay

Sequence of UniProt P00451 (P00451 other isoform, or with tags, fused parts or gaps limits assumed): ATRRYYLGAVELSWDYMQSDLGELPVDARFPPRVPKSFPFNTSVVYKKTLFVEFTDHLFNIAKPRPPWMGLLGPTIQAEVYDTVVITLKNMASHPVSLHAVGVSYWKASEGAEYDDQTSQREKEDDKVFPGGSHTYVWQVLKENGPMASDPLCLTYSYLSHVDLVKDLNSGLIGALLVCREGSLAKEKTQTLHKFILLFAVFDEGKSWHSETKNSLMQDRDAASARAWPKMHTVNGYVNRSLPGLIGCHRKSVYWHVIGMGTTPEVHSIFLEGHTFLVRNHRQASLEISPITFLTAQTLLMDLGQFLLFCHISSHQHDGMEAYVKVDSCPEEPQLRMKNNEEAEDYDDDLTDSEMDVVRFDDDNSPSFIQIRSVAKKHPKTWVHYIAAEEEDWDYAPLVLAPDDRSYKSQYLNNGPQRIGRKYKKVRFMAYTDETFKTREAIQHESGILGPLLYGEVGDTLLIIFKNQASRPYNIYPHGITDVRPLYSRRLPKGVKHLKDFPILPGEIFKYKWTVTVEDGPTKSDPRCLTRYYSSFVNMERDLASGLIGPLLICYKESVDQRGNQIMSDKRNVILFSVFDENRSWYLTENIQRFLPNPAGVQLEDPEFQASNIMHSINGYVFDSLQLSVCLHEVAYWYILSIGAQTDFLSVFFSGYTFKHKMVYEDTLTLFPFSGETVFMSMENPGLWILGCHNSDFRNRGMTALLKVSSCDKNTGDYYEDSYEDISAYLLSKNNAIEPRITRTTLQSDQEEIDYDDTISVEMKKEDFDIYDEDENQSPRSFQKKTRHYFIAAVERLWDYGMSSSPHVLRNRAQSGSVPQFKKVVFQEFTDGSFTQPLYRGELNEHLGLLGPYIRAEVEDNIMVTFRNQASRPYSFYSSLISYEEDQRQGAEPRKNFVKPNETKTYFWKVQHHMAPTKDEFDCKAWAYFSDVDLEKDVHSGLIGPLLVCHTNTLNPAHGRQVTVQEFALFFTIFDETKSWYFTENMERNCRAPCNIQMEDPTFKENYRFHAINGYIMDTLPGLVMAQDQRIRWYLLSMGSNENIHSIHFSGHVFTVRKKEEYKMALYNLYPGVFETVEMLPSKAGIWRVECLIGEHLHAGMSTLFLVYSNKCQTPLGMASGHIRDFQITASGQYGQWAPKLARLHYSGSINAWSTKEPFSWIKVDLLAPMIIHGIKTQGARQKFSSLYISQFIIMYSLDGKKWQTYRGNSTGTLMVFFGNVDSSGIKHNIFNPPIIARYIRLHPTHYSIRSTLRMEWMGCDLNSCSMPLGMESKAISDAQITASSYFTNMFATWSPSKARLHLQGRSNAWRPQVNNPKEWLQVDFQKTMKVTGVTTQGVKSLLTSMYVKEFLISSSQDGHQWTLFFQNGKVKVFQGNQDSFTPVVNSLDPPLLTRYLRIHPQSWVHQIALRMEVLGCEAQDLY

full length von Willebrand factor (vWF) (from UniProt P04275 23-2813)
FVIII activity (chromogenic assay) in supernatant of 293T cells co-transfected with pREP7-BDD.FVIII and pRex52: 199
FVIII activity in supernatant of K562 cells co-transduced with vBDD.FVIII and vEx52 at a MOI of 1.5: 28.3

mutant von Willebrand factor vWF23 (exons 24-46 of vWF deleted) (from UniProt P04275 23-2813)
FVIII activity (chromogenic assay) in supernatant of 293T cells co-transfected with pREP7-BDD.FVIII and pRex23: 28.9
FVIII activity in supernatant of K562 cells co-transduced with vBDD.FVIII and vEx23 at a MOI of 1.5: 33.9

mutant von Willebrand factor vWF28 (exons 29-46 of vWF deleted) (from UniProt P04275 23-2813)
FVIII activity (chromogenic assay) in supernatant of 293T cells co-transfected with pREP7-BDD.FVIII and pRex28: 107
FVIII activity in supernatant of K562 cells co-transduced with vBDD.FVIII and vEx28 at a MOI of 1.5: 53.3
